The target of assay [1] is canine E-cadherin ectodomain K14E mutant (canine). The assay is described as follows: single-molecule atomic force microscopy; as −ab, but tip and coverslip incubated with 19A11 Fab and 150 nM free 19A11 Fab in the measurement buffer (+ab); pulling velocity 1 µm/s; pH 7.5, 10 mM Tris-HCl, 100 mM NaCl, 10 mM KCl, 2.5 mM CaCl2.
Assay [2] shares this target. The assay is described as follows: single-molecule atomic force microscopy; biotinylated canine Ecad on streptavidin on PEG tethers on both AFM tip and coverslip; without 19A11 (−ab); pulling velocity 1 µm/s; pH 7.5, 10 mM Tris-HCl, 100 mM NaCl, 10 mM KCl, 2.5 mM CaCl2.

In assay [1], “canine E-cadherin ectodomain K14E mutant (domain or fragment)” returned an unbinding force (peak of a single Gaussian), with 150 nM 19A11 of 40.3 pN. This substance registered an unbinding force (peak of a single Gaussian), without 19A11 in assay [2] of 41.2 pN.

The values are drawn from article PMC9371698.
